T1: KIAA0935 peptide on HLA-A*02:01 (human)
T1 peptide: RVTDEAGHPV

T2: cMOAT2 peptide on HLA-A*02:01 (human)
T2 peptide: NVADIGLHDV

T3: Endothelin-1 receptor peptide on HLA-A*02:01 (human)
T3 peptide: RVQGIGIPLV

T4: Prostaglandin transporter peptide on HLA-A*02:01 (human)
T4 peptide: LLAGIGTVPI

T5: G-protein coupled receptor RE2 peptide on HLA-A*02:01 (human)
T5 peptide: RITDLGLSPH

T6: ABC transporter MOAT-C peptide on HLA-A*02:01 (human)
T6 peptide: RISDIGLADL

T7: SLC1A1 peptide on HLA-A*02:01 (human)
T7 peptide: VLTGLAIHSI

T8: IGHG1 peptide on HLA-A*02:01 (human)
T8 peptide: RLSELAIFGV

T9: P47 peptide on HLA-A*02:01 (human)
T9 peptide: RISDIRLFIV

T10: MRP3 peptide on HLA-A*02:01 (human)
T10 peptide: NVADIGFHDV

T11: KIAA0735 peptide on HLA-A*02:01 (human)
T11 peptide: LISGIGIGGA

T12: Monocarboxylate transporter 8 peptide on HLA-A*02:01 (human)
T12 peptide: AVAFIGLHTS

T13: Hypothetical 20 kD protein peptide on HLA-A*02:01 (human)
T13 peptide: RISAIILHPN

B1: SIG35α / TRBV27 Cl.1574 (TCR)
alpha TRAV12-2 J35 CDR3: CAVSIGFGNVL
beta TRBV27 TRBJ1-1 CDR3: CASSPWERINTEAFF
B2: SIG35α / TRBV27 Cl.413 (TCR)
alpha TRAV12-2 J35 CDR3: CAVSIGFGNVL
beta TRBV27 TRBJ1-4 CDR3: CASSVFGGDMGEKLFF
B3: SIG35α / TRBV27 Cl.794 (TCR)
alpha TRAV12-2 J35 CDR3: CAVSIGFGNVL
beta TRBV27 TRBJ1-2 CDR3: CASSLLGDYGYTF
B4: SIG35α / TRBV27 Cl.1086 (TCR)
alpha TRAV12-2 J35 CDR3: CAVSIGFGNVL
beta TRBV27 TRBJ1-2 CDR3: CASSLHGPGGYTF
B5: SIG35α / TRBV27 Cl.1593 (TCR)
alpha TRAV12-2 J35 CDR3: CAVSIGFGNVL
beta TRBV27 TRBJ1-5 CDR3: CASGNNQPQHF
B6: SIG35α / TRBV27 Cl.758 (TCR)
alpha TRAV12-2 J35 CDR3: CAVSIGFGNVL
beta TRBV27 TRBJ2-2 CDR3: CASSPRLAGDGELFF
B7: SIG35α / TRBV27 Cl.523 (TCR)
alpha TRAV12-2 J35 CDR3: CAVSIGFGNVL
beta TRBV27 TRBJ2-7 CDR3: CASGSYEQYF
B8: SIG35α / TRBV27 Cl.788 (TCR)
alpha TRAV12-2 J35 CDR3: CAVSIGFGNVL
beta TRBV27 TRBJ2-7 CDR3: CASGPSYEQYF
B9: SIG35α / TRBV27 Cl.1606 (TCR)
alpha TRAV12-2 J35 CDR3: CAVSIGFGNVL
beta TRBV27 TRBJ2-7 CDR3: CASSLLGSYEQYF
B10: SIG35α / TRBV27 Cl.1599 (TCR)
alpha TRAV12-2 J35 CDR3: CAVSIGFGNVL
beta TRBV27 TRBJ1-1 CDR3: CASSFLGAMAEAFF

One experiment has as its target T1, KIAA0935 peptide on HLA-A*02:01. The experiment in a line: cytokine release.
For the molecule B1, the binding result is listed as “no recognition”.

B2: the binding result was “no recognition”.

Consider B3, for which the binding result is “no recognition”.

As to B4, the binding result was “no recognition”.

With B5, the binding result is given as “no recognition”.

B6: the binding result was “no recognition”.

Take B7: the binding result is on record as “no recognition”.

Regarding B8, the binding result was “no recognition”.

As for B9, the binding result is “no recognition”.

Consider B10, for which the binding result is “no recognition”.

The next experiment has as its target T2, cMOAT2 peptide on HLA-A*02:01. The experiment in a line: cytokine release.
Regarding B1, the binding result is recorded as “no recognition”.

For the molecule B2, the binding result is given as “no recognition”.

Turning to B3, the binding result is “no recognition”.

For the molecule B4, the binding result was “no recognition”.

As for B5, the binding result is reported as “no recognition”.

As for B6, the binding result is on record as “no recognition”.

Regarding B7, the binding result is on record as “no recognition”.

As to B8, the binding result is on record as “no recognition”.

With B9, the binding result is given as “no recognition”.

Regarding B10, the binding result is recorded as “no recognition”.

For another experiment, the target named is T3, Endothelin-1 receptor peptide on …. The experiment in a line: cytokine release.
Regarding B1, the binding result is “no recognition”.

As for B2, the binding result was “no recognition”.

Take B3: the binding result is reported as “no recognition”.

Regarding B4, the binding result is reported as “no recognition”.

As for B5, the binding result is recorded as “no recognition”.

As for B6, the binding result is “no recognition”.

For the molecule B7, the binding result is given as “no recognition”.

As to B8, the binding result is listed as “no recognition”.

Take B9: the binding result is recorded as “no recognition”.

Consider B10, for which the binding result is recorded as “no recognition”.

The next experiment concerns the target T4, Prostaglandin transporter peptide on …. The experiment in a line: cytokine release.
Regarding B1, the binding result is given as “recognises”.

With B2, the binding result is listed as “recognises”.

Regarding B3, the binding result was “recognises”.

On to B4, for which the binding result is recorded as “recognises”.

On to B5, for which the binding result is “recognises”.

In the case of B6, the binding result was “recognises”.

Consider B7, for which the binding result is recorded as “recognises”.

For B8, the binding result was “recognises”.

B9: the binding result is listed as “recognises”.

B10: the binding result was “recognises”.

The target in the next experiment is T5, G-protein coupled receptor RE2 peptide …. The experiment in a line: cytokine release.
On to B1, for which the binding result is given as “recognises”.

In the case of B2, the binding result is “no recognition”.

Regarding B3, the binding result is given as “recognises”.

In the case of B4, the binding result is listed as “no recognition”.

On to B5, for which the binding result is “recognises”.

Take B6: the binding result is “recognises”.

Consider B7, for which the binding result is “recognises”.

Take B8: the binding result is on record as “recognises”.

As to B9, the binding result is recorded as “recognises”.

B10: the binding result is given as “recognises”.

A further experiment deals with T6, ABC transporter MOAT-C peptide on …. The experiment in a line: cytokine release.
Take B1: the binding result is listed as “no recognition”.

B2: the binding result is “no recognition”.

With B3, the binding result was “no recognition”.

In the case of B4, the binding result is “no recognition”.

Turning to B5, the binding result is “no recognition”.

In the case of B6, the binding result is listed as “no recognition”.

With B7, the binding result was “no recognition”.

As to B8, the binding result is recorded as “no recognition”.

B9: the binding result is “no recognition”.

On to B10, for which the binding result was “no recognition”.

For a further experiment, the target named is T7, SLC1A1 peptide on HLA-A*02:01. The experiment in a line: cytokine release.
As to B1, the binding result was “recognises”.

As for B2, the binding result is reported as “no recognition”.

As for B3, the binding result is on record as “no recognition”.

As for B4, the binding result was “no recognition”.

As for B5, the binding result is reported as “no recognition”.

Consider B6, for which the binding result is “no recognition”.

On to B7, for which the binding result was “no recognition”.

Consider B8, for which the binding result was “no recognition”.

As to B9, the binding result is given as “recognises”.

Consider B10, for which the binding result is recorded as “no recognition”.

In a further experiment the target is T8, IGHG1 peptide on HLA-A*02:01. The experiment in a line: cytokine release.
B1: the binding result is on record as “no recognition”.

Regarding B2, the binding result is given as “no recognition”.

As for B3, the binding result was “no recognition”.

Consider B4, for which the binding result is on record as “no recognition”.

Regarding B5, the binding result was “no recognition”.

For B6, the binding result is listed as “no recognition”.

As to B7, the binding result is “no recognition”.

As for B8, the binding result is “no recognition”.

Take B9: the binding result is reported as “no recognition”.

Consider B10, for which the binding result is “no recognition”.

A further experiment concerns the target T9, P47 peptide on HLA-A*02:01. The experiment in a line: cytokine release.
As to B1, the binding result is given as “no recognition”.

Regarding B2, the binding result is on record as “no recognition”.

Consider B3, for which the binding result is “no recognition”.

B4: the binding result is listed as “no recognition”.

For the molecule B5, the binding result was “no recognition”.

As for B6, the binding result was “no recognition”.

As for B7, the binding result is “no recognition”.

In the case of B8, the binding result is “no recognition”.

As for B9, the binding result was “no recognition”.

Regarding B10, the binding result is “no recognition”.

The target of a further experiment is T10, MRP3 peptide on HLA-A*02:01. The experiment in a line: cytokine release.
As to B1, the binding result is recorded as “no recognition”.

Regarding B2, the binding result is on record as “no recognition”.

For B3, the binding result is recorded as “no recognition”.

On to B4, for which the binding result is “no recognition”.

For B5, the binding result is “no recognition”.

Regarding B6, the binding result is “no recognition”.

For B7, the binding result is reported as “no recognition”.

In the case of B8, the binding result is given as “no recognition”.

With B9, the binding result is given as “no recognition”.

As for B10, the binding result is given as “no recognition”.

The target in the next experiment is T11, KIAA0735 peptide on HLA-A*02:01. The experiment in a line: cytokine release.
Consider B1, for which the binding result is recorded as “recognises”.

On to B2, for which the binding result was “no recognition”.

For B3, the binding result is “recognises”.

In the case of B4, the binding result is “no recognition”.

On to B5, for which the binding result is listed as “recognises”.

B6: the binding result is on record as “no recognition”.

As for B7, the binding result is “recognises”.

In the case of B8, the binding result is on record as “no recognition”.

On to B9, for which the binding result is “recognises”.

B10: the binding result is recorded as “recognises”.

The next experiment addresses T12, Monocarboxylate transporter 8 peptide …. The experiment in a line: cytokine release.
Turning to B1, the binding result is listed as “no recognition”.

On to B2, for which the binding result is “no recognition”.

For B3, the binding result is recorded as “no recognition”.

On to B4, for which the binding result was “no recognition”.

B5: the binding result is “no recognition”.

In the case of B6, the binding result is reported as “no recognition”.

With B7, the binding result is “no recognition”.

For the molecule B8, the binding result is on record as “no recognition”.

Regarding B9, the binding result is on record as “no recognition”.

For the molecule B10, the binding result is “no recognition”.

A further experiment has as its target T13, Hypothetical 20 kD protein peptide on …. The experiment in a line: cytokine release.
Take B1: the binding result is given as “no recognition”.

Take B2: the binding result is reported as “no recognition”.

Take B3: the binding result is on record as “no recognition”.

For the molecule B4, the binding result was “no recognition”.

For the molecule B5, the binding result is “no recognition”.

In the case of B6, the binding result is reported as “no recognition”.

B7: the binding result is recorded as “no recognition”.

Take B8: the binding result is given as “no recognition”.

For the molecule B9, the binding result is recorded as “no recognition”.

For the molecule B10, the binding result is “no recognition”.

The values are drawn from paper PMC4369446 (2015).
